For 1 molecule, Kd, kon and koff results are on record in patent US20120201746A1 (AbbVie / Abbott, published 2012).

For experiment [1], the target named is T1, Recombinant Human IL-1β (human, UniProt P01584 117-269).
T1 construct: also called IL-1b
Description: SPR (BIAcore). In general terms: SPR reads the build-up and loss of mass on a sensor chip optically.
Description: The BIAcore® assay (BIAcore®, Inc, Piscataway, N.J.) determines the affinity of antibodies with kinetic measurements of on-rate and off-rate constants. Binding of antibodies to a target antigen (for example, a purified recombinant target antigen) is determined by surface plasmon resonance-based measurements with a BIAcore® 1000 or 3000 instrument (BIAcore® AB, Uppsala, Sweden) using running HBS-EP (10 mM HEPES [pH 7.4], 150 mM NaCl, 3 mM EDTA, and 0.005% surfactant P20) at 25° C. […] Unreacted moieties on the biosensor surface are blocked with ethanolamine. Modified carboxymethyl dextran surface in flowcell 2 and 4 is used as a reaction surface. Unmodified carboxymethyl dextran without goat anti-mouse IgG in flow cell 1 and 3 is used as the reference surface. For kinetic analysis, rate equations derived from the 1:1 Langmuir binding model are fitted simultaneously to association and dissociation phases of all eight injections (using global fit analysis) with the use of Biaevaluation 4.0.1 software. Purified antibodies are diluted in HEPES-buffered saline for capture across goat anti-mouse IgG specific reaction surfaces. […] The association and dissociation rate constants, kₒₙ (M⁻¹s⁻¹) and koff (s⁻¹), are determined under a continuous flow rate of 25 μl/minute. Rate constants are derived by making kinetic binding measurements at different antigen concentrations ranging from 10-200 nM. The equilibrium dissociation constant (M) of the reaction between antibodies and the target antigen is then calculated from the kinetic rate constants by the following formula: KD=koff/kₒₙ. Binding is recorded as a function of time and kinetic rate constants are calculated.

For experiment [2], the target named is T1, Recombinant Human IL-1β. Description: SPR (BIAcore); *off-rate at the limit of dissociation after 1 hour.
Description: The BIAcore® assay (BIAcore®, Inc, Piscataway, N.J.) determines the affinity of antibodies with kinetic measurements of on-rate and off-rate constants. Binding of antibodies to a target antigen (for example, a purified recombinant target antigen) is determined by surface plasmon resonance-based measurements with a BIAcore® 1000 or 3000 instrument (BIAcore® AB, Uppsala, Sweden) using running HBS-EP (10 mM HEPES [pH 7.4], 150 mM NaCl, 3 mM EDTA, and 0.005% surfactant P20) at 25° C. […] Unreacted moieties on the biosensor surface are blocked with ethanolamine. Modified carboxymethyl dextran surface in flowcell 2 and 4 is used as a reaction surface. Unmodified carboxymethyl dextran without goat anti-mouse IgG in flow cell 1 and 3 is used as the reference surface. […] The association and dissociation rate constants, kₒₙ (M⁻¹s⁻¹) and koff (s⁻¹), are determined under a continuous flow rate of 25 μl/minute. […] The equilibrium dissociation constant (M) of the reaction between antibodies and the target antigen is then calculated from the kinetic rate constants by the following formula: KD=koff/kₒₙ. Binding is recorded as a function of time and kinetic rate constants are calculated.

B1: ½ IL1b DA2 Fc (Fc fusion)
chain: EVQLLESGGGLVQPGGSLRLSCAASGFTFAEESWMWVRQAPGKGLEWVSRIGQDGKNTYYREDVKGRFTISRDNSKNTLYLQMNSLRAEDTAVYYCAKYTGRIMGHHLFDYWGQGTLVTVSSEPKSSDKTHTSPPSPAPELLGGPSVFLFPPKPKDTLMISRTPEVTCVVVDVSHEDPEVKFNWYVDGVEVHNAKTKPREEQYNSTYRVVSVLTVLHQDWLNGKEYKCKVSNKALPAPIEKTISKAKGQPREPQVYTLPPSREEMTKNQVSLTCLVKGFYPSDIAVEWESNGQPENNYKTTPPVLDSDGSFRLYSKLTVDKSRWQQGNVFSCSVMHEALHNHYTQKSLSLSPGK
notes: Half domain antibody-Fc with Fc-Mut18; 83 % half-Ig by SEC; also called half IL1b DA2 Fc
As a reminder, the Kd is the equilibrium constant for the complex coming apart. As a reminder, the kon is the second-order rate constant of association. For orientation: koff means a measure of how fast the partners let go of each other. On to B1, for which, in experiment [1], the Kd stood at 0.028 nM and the kon was 170000 M⁻¹ s⁻¹. Besides, the koff in experiment [2] worked out at 4.9e-06 s⁻¹.
